Data reported in patent US20020102568, “Nucleic acid sensor molecules” (published 2002).

Molecular target: ERK2 (unactivated, unphosphorylated) (UniProt P28482 P28482:2-360)
Assay: cleavage_in_vitro; half-maximal allozyme activation; about 100-fold activation by ERK2; 100 mM KCl, 1 mM MgCl2, 10 mM Tris 7.5, 34 C; text cites SEQ 39, listing gives Erk sensor molecule as SEQ 42
Protocol: To examine the dependence of activation on the concentration of ERK2, various amounts of ERK2 were added to different reactions (FIG. 31b). One half-maximal nucleic acid sensor molecule activation is promoted by ˜800 pg/μl ERK2.

ERK2 (unactivated, unphosphorylated), sequence (P28482 2-360, one chain of several): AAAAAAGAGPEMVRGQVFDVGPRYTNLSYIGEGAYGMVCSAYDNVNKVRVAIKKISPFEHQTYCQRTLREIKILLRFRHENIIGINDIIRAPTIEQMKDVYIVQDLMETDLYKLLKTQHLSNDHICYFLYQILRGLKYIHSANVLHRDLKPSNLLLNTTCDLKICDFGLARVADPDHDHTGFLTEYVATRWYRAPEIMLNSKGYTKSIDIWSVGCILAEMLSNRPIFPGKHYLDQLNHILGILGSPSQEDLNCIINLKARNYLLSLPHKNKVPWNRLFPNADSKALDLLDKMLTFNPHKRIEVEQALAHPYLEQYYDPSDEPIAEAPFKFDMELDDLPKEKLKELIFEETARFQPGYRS

B1: ERK2-responsive hammerhead allozyme (ssRNA)
RNA: GCGUGACCUGAUGAGUCACGCUAAGGAGGAUUUCCGAAAGCGGCUACGGUCCGCCAGUGUUACGAAACGUUCCC
With B1 the EC50 was about 0.8 µg/mL.
